The target in assay [1] is GNNV-P R276A (Dragon grouper nervous necrosis virus). The experiment in a line: AUC; sedimentation velocity, pH 5.0, no divalent ions; 0.25–0.4 mg/mL, 60,000 rpm, 20 °C, absorbance at 280 nm, c(s) model (SEDFIT); monomer to trimer.
Assay [2] addresses GNNV-P: Dragon grouper NNV capsid protein P-domain (aa 221–338) plus the flexible linker (aa 214–220), wild type (Dragon grouper nervous necrosis virus). Described as above.

Among the data in paper PMC11406519 are stoichiometry N values, retold here.

The term stoichiometry N denotes a count of units in the complex or per binding partner.

For the substance GNNV-P R276A (domain or fragment), in assay [1], the stoichiometry N is 3.

Turning to “GNNV-P: Dragon grouper NNV capsid protein P-domain (aa 221–338) plus the flexible linker (aa 214–220), wild type (domain or fragment)”, the stoichiometry N in assay [2] is 3.
